Test results as given in paper doi:10.1101/2021.08.20.457142.

B1: MKK6 D-site peptide / p38-alpha (MAPK14) L195A, full length (parent complex)
chain 1: SQSKGKKRNPGLKIPKEAFEQP
chain 2: MSQERPTFYRQELNKTVWEVPERYQNLSPVGSGAYGSVCAAFDTKTGHRVAVKKLSRPFQSIIHAKRTYRELRLLKHMKHENVIGLLDVFTPARSLEEFNDVYLVTHLMGADLNNIVKCQKLTDDHVQFLIYQILRGLKYIHSADIIHRDLKPSNLAVNEDCELKILDFGLARHTDDEMTGYVATRWYRAPEIMANWMHYNQTVDIWSVGCIMAELLTGRTLFPGTDHIDQLKLILRLVGTPGAELLKKISSESARNYIQSLAQMPKMNFANVFIGANPLAVDLLEKMLVLDSDKRITAAQALAHAYFAQYHDPDDEPVAEPYDQSFESRDFLIDEWKSLTYDEVISFVPPPLDQEEMES

Variants of: B1

Variant	screen value
chain 1 SQAKAKKRNPGLKIPKEAFEQP	2.03 Z-score of the enrichment rate within one screen of 711 sequences
chain 1 SQSKGKAANPGLKIPKEAFEQP	-0.694 Z-score of the enrichment rate within one screen of 711 sequences
chain 1 SQSKGQKRNPGLKIPKEAFEQP	0.371 Z-score of the enrichment rate within one screen of 711 sequences
chain 1 SQSKGWKRNPGLKIPKEAFEQP	0.936 Z-score of the enrichment rate within one screen of 711 sequences
chain 1 SQSKGKKRNPGLKIPSEAFEQP	0.134 Z-score of the enrichment rate within one screen of 711 sequences
chain 1 SQSKGKKRNPGLKIPHEAFEQP	0.315 Z-score of the enrichment rate within one screen of 711 sequences
chain 1 SQSKGKKRNPGLKIPFEAFEQP	0.506 Z-score of the enrichment rate within one screen of 711 sequences
chain 1 SQSKAKKRNPGAKIPKEAFEQP	-0.353 Z-score of the enrichment rate within one screen of 711 sequences
chain 1 SQSKGKKRNPELKIPKEAFEQP	0.286 Z-score of the enrichment rate within one screen of 711 sequences
chain 1 SQSKGKKRMPGLKIPKEAFEQP	1.1 Z-score of the enrichment rate within one screen of 711 sequences
chain 1 SQSKGKKRIPGLKIPKEAFEQP	0.56 Z-score of the enrichment rate within one screen of 711 sequences
chain 1 SQSKGKKRNPGAKIAKEAFEQP	-0.373 Z-score of the enrichment rate within one screen of 711 sequences
chain 1 SQSKGKKRNPGLYIPKEAFEQP	-0.0639 Z-score of the enrichment rate within one screen of 711 sequences
chain 1 SQSKGAKRAPGLKIPKEAFEQP	-0.245 Z-score of the enrichment rate within one screen of 711 sequences
chain 1 SQSKGKKRNPGAAIPKEAFEQP	-1.08 Z-score of the enrichment rate within one screen of 711 sequences
chain 1 SQSKGKKPNPGLKIPKEAFEQP	-0.0227 Z-score of the enrichment rate within one screen of 711 sequences
chain 1 SQSKGKKFNPGLKIPKEAFEQP	0.775 Z-score of the enrichment rate within one screen of 711 sequences
chain 1 SQSKGKKWNPGLKIPKEAFEQP	0.178 Z-score of the enrichment rate within one screen of 711 sequences

Variant	screen value
chain 1 SQSKEKKRNPGLKIPKEAFEQP	0.392 Z-score of the enrichment rate within one screen of 711 sequences
chain 1 SQSKYKKRNPGLKIPKEAFEQP	2 Z-score of the enrichment rate within one screen of 711 sequences
chain 1 SQAKGKKANPGLKIPKEAFEQP	-0.296 Z-score of the enrichment rate within one screen of 711 sequences
chain 1 SQSKGKKRNPGLKIWKEAFEQP	0.627 Z-score of the enrichment rate within one screen of 711 sequences
chain 1 SQSKGKKRNPGLKIMKEAFEQP	1.84 Z-score of the enrichment rate within one screen of 711 sequences
chain 1 SQSKGKKRNPGLKISKEAFEQP	2.36 Z-score of the enrichment rate within one screen of 711 sequences
chain 1 SQSKGKKRNKGLKIPKEAFEQP	0.591 Z-score of the enrichment rate within one screen of 711 sequences
chain 1 SQSKGKKRNPGLKRPKEAFEQP	-1.31 Z-score of the enrichment rate within one screen of 711 sequences
chain 1 SQSKGKKRNPGLKCPKEAFEQP	-0.81 Z-score of the enrichment rate within one screen of 711 sequences
chain 1 SQSKGKKRNPGLKYPKEAFEQP	-1.19 Z-score of the enrichment rate within one screen of 711 sequences
chain 1 SQSKGKKRNAGAKIPKEAFEQP	-0.884 Z-score of the enrichment rate within one screen of 711 sequences
chain 1 SQHKGKKRNPGLKIPKEAFEQP	1.56 Z-score of the enrichment rate within one screen of 711 sequences
chain 1 SQTKGKKRNPGLKIPKEAFEQP	1.74 Z-score of the enrichment rate within one screen of 711 sequences
chain 1 SQMKGKKRNPGLKIPKEAFEQP	2.21 Z-score of the enrichment rate within one screen of 711 sequences
chain 1 SQSAGKKRNPGLKIAKEAFEQP	1.47 Z-score of the enrichment rate within one screen of 711 sequences
chain 1 SQSKGKKRNPGYKIPKEAFEQP	-1.09 Z-score of the enrichment rate within one screen of 711 sequences
chain 1 SQSKGKKRNPGQKIPKEAFEQP	-1.19 Z-score of the enrichment rate within one screen of 711 sequences
chain 1 SQSKGKRRNPGLKIPKEAFEQP	2.22 Z-score of the enrichment rate within one screen of 711 sequences
